Experiment [1] deals with washed platelets. As to the kind of experiment: Ristocetin-induced agglutination of washed platelets after preincubation with scFv. The experiment is classed as cell-based, human. How it is done:
Aggregation is determined in PRP due to the presence of thrombotic agents, while agglutination is determined in washed platelets. The effect of Y1 (scFv) on agglutination of washed platelets was tested at various concentrations of Y1. Platelets were pre-incubated with Y1 scFv, Y17 scFv, Y16-scFv, or a control TM-1 scFv for 4 min at 37° C. before being exposed to ristocetin, an inducer of platelet agglutination and aggregation.
Platelet concentrate in acid-citrate-dextrose (ACD) was obtained from a blood bank, platelets were isolated, washed once in buffer containing ACD and saline in a ratio of 1:7. The platelets were centrifuged at 800 g for 10 min after each wash and were resuspended in Tyrodes solution (2 mM MgCl2, 137 mM NaCl, 2.68 mM KCl, 3 mM NaH2PO4, 0.1% glucose, 5 mM Hepes and 0.35% albumin, pH 7.35) and count the number of cells.
(§1) For platelet aggregation studies, platelet rich plasma (PRP) and washed platelets were stirred at 500 rpm at 37° C. in whole blood Lumiaggregometer (Chronolog, Havertown,Pa.). The difference in light transmission through the platelet suspension and suspending medium was taken as 100% aggregation. The effect of Y1 on platelet aggregation was evaluated by addition of different concentration of Y1 before the addition of agonist, and the effect was recorded for four minutes.
The effect of Y17-scFv on vWF-dependent agglutination of platelets was tested at different concentrations of Y17.

The subject of experiment [2] is platelet-rich-plasma (PRP). The experiment in a line: Ristocetin-induced aggregation of platelet-rich plasma after preincubation with scFv. The experiment is classed as cell-based, human. To be noted: scFv 25 μg/ml. How it is done: The effect of Y1 (scfv) on aggregation of platelet-rich-plasma (PRP) was tested at various concentrations of Y1. PRP was pre-incubated with Y1 scfv, Y17 scfv, or a control sTM-1cFv for 4 min at 37° C. before being exposed to ristocetin, an inducer of platelet agglutination and aggregation. A reversible inhibitory effect was observed when scFv was added to PRP prior to the addition of ristocetin, and it was dose dependent.
Blood was collected into a tube containing 3.8% sodium citrate. Platelet-rich plasma was prepared by centrifugation at 250×g for 10 minutes.
as §1

For experiment [3], the system named is washed platelets. The experiment in a line: Effect of Y1-IgG on agglutination of washed platelets with or without ristocetin. The class given is cell-based, human. The note with it: IgG 1 μg/ml. The text has this: Due to its natural structure the full IgG Y1 has two binding sites on GPIbα and one binding site for an Fc receptor. It is likely that if full IgG Y1 binds two GPIbα molecules, it will activate platelets and induce platelet agglutination. Furthermore, because platelets have an Fc-receptor, Y1-IgG can induce platelet agglutination by binding to GPIbα and to an Fc-receptor, thereby producing platelet agglutination by each IgG Y1 binding to three platelets. Therefore, the effect of IgG Y1 on aggregation of washed platelets was tested at different concentrations of Y1-IgG in the presence or absence of ristocetin. Induction of platelet aggregation by Y1-IgG was monitored for 4 min at 37° C., followed by addition of ristocetin.
The results are presented in Table 6 and FIG. 17 without agonist. Y1-IgG alone at a final concentration of 50 μg/ml induced platelet agglutination ˜39% of normal agglutination of washed platelets. Induction of platelet agglutination by Y1-IgG was tested for 4 min at 37° C., followed by addition of ristocetin. […]
For platelet aggregation studies, platelet rich plasma (PRP) and washed platelets were stirred at 500 rpm at 37° C. in whole blood Lumiaggregometer (Chronolog, Havertown,Pa.). […] The effect of Y1 on platelet aggregation was evaluated by addition of different concentration of Y1 before the addition of agonist, and the effect was recorded for four minutes.

For a further experiment, the system named is Glycocalicin (GC). The experiment in a line: Western blot with Y1 on enzyme-treated glycocalicin. The experiment is classed as binding, human. The note with it: O-Sialo glycoprotein endopeptidase, 30′ at 37° C. The text has this: Y1 ligand was further characterized using enzymatic treatments with proteases, glycanases, and […]; Western blotting with Y1, anti-CD42 antibodies, anti-CD162 antibodies and 181, immunoprecipitation using Y1 and anti-CD162 antibodies; FACS analysis using Y1 anti-CD162 antibodies; and sequencing.
The table below summarizes the biochemical experiments preformed to characterize and localize the Y1 binding site on KG-1 cells.
Western Blot Analysis with Y1 on SDS-PAGE Reducing Gels
The nitrocellulose membrane was blocked using 5% skim milk for one hour at room temperature. The membrane was then washed 3 times for 5 minutes each with 0.05% Tween 20 in PBS at room temperature. The membrane was incubated with 5 μg/ml Y1-biotin (or 181-biotin) in 2% skim milk in PBS for one hour at room temperature. The membrane was then washed 3 times for 5 minutes each with cold 0.05% Tween 20 in PBS in the cold room (about 4 to about 10° C.). The membrane was then incubated in the cold room with a 1:1000 dilution of SAV-HRP (streptavidin-HRP) (at a final concentration of […]) in 2% skim milk, 0.05% Tween. The dilution was carried out at room temperature (about 25° C.), then the diluted SAV-HRP was cooled on ice for 10-15 minutes before use. The incubation was carried out for 1 hour with gentle shaking. After the incubation with SAV-HRP, the membrane was washed, as above. […]

The test system of another experiment is Jurkat cells. As to the kind of experiment: FACS binding of IgG-Y1 compared with scFv-Y1. Further details: species or system human. The note with it: 5 ng IgG-Y1 versus 1 μg scFv-Y1, Jurkat cells. The method, then:
Binding of full size IgG-Y1 molecule: Binding experiments were performed to determine the level of binding of the IgG-Y1 molecule compared to the binding level of the scFv-Y1 molecule. A two-step staining procedure was employed, wherein 5 ng of IgG-Y1 were reacted with both RAJI cells (negative control, FIG. 44) and Jurkat cells (Y1 positive cells, FIG. 44). For detection, PE-labeled goat anti-human IgG was used. Similarly, 1 μg of scFv-Y1 was reacted with Jurkat cells (FIG. 44), and PE-labeled rabbit anti-scFv was used for detection.
Background: In flow cytometry, cells or beads pass a laser one at a time.

Experiment [4] has as its system glycocalicin, platelet lysate, KG-1 cell lysate, Raji cell lysate. As to the kind of experiment: Western blot on glycocalicin, platelet, KG-1 and Raji lysates. The class given is binding, human. The note with it: FIG. 20. The text has this: Antibodies against GPIbα (CD42b) recognize platelet lysate and glycocalicin and but not KG-1 cell lysate (a Y1 binding positive myeloid cell line) or Raji cell lysate (a B cell line that is negative for Y1 binding at concentrations at which KG-1 cells are positive for Y1 binding). […] (FIG. 20).

Glycocalicin (GC), sequence (P07359 17-298 limits assumed): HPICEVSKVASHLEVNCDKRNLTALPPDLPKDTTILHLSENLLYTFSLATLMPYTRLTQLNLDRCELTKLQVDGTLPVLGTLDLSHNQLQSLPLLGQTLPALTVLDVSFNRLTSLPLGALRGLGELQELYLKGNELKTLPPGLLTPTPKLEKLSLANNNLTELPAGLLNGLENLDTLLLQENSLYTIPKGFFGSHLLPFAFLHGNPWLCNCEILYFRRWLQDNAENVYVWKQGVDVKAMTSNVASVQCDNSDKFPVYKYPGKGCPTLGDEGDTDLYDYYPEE

B1: Y1 scFv: fully human scFv clone binding platelets and myelogenous leukemia cells, SEQ ID NO: 25 (protein, listed as Homo sapiens)
scFv: MKYLLPTAAAGLLLLAAQPAMAEVQLVESGGGVVRPGGSLRLSCAASGFTFDDYGMSWVRQAPGKGLEWVSGINWNGGSTGYADSVKGRFTISRDNAKNSLYLQMNSLRAEDTAVYYCARMRAPVIWGQGTLVTVSRGGGGSGGGGSGGGGSSELTQDPAVSVALGQTVRITCQGDSLRSYYASWYQQKPGQAPVLVIYGKNNRPSGIPDRFSGSSSGNTASLTITGAQAEDEADYYCNSRDSSGNHVVFGGGTKLTVLGAAAEQKLISEEDLNGAA
In general, % inhibition refers to the percentage by which the read-out fell short of the control. Turning to B1, the “% agglutination” value stood at 92% in the experiment on washed platelets [1] (scFv 4 μg/ml); 67% in the experiment with washed platelets [1] (scFv 12.5 μg/ml); 23% in the experiment with washed platelets [1] (scFv 25 μg/ml, ristocetin = 100% agglutination). For the same molecule, the “% inhibition” value in the experiment with washed platelets [1] (scFv 4 μg/ml) is recorded as 8%; in the experiment on washed platelets [1] (scFv 4 μg/ml, listed as Y1) it was “No inhibition”; in the experiment on washed platelets [1] (scFv 12.5 μg/ml) it was 33%; with washed platelets [1] (scFv 12.5 μg/ml, listed as Y1), “only partial inhibition”; in experiment [2] (listed as Y1), “no significant inhibition”. In addition, the “% aggregation” value in experiment [2] is 87%. In the experiment with washed platelets [3], the “% agglutination Without ristocetin” value was “no induction”. The “Reactivity with Y1” value with Glycocalicin (GC) is “Enhanced”. Also, in the experiment with Jurkat cells, the “more molecules needed for a level of detection similar to that of IgG-Y1” value is “approximately 10^3 fold”. The “recognition in Western blot” value in experiment [4] was “recognized both glycocalicin, platelet lysate, and KG-1 cells, but not Raji cell extract”.

The values are drawn from patent US20040001822A1, “Y1-isolated molecules comprising epitopes containing sulfated moieties, antibodies to such epitopes, and uses thereof” (priority 2000, published 2004).
